Positions count from the first letter of the chain named. Names and notes keep the numbering of the source.

This assay concerns L-serine. In words: L-serine biosensor dose response by exogenous addition of L-serine (eyfp fluorescence intensity/OD600). The settings on record: for detection limit of the biosensor (L-serine concentration at which the dose response curve shows an obvious upward trend): E. coli JM109, L-serine 0, 25, 50, 75 or 100 mM, 2 h at 37° C., PSerE-eyfp reporter. The format is cell-based, E. coli JM109. The procedure: Determination of fluorescence intensity and biomass of bacteria: E. coli in the medium was centrifuged at 4° C. and 4000 g for 5 min to collect the bacteria, washed with a precooled PBS buffer for 2-3 times, resuspended and diluted in a PBS buffer (OD600=0.2-0.8). 200 μL of the diluted bacterial liquid was pipetted and added into a 96-well plate, and the fluorescence intensity and bacterial concentration were determined with a multifunctional microplate reader. During the determination of the fluorescence intensity, the parameters of the microplate reader were set to a yellow fluorescent protein excitation wavelength of 488 nm and an emission wavelength of 590/9 nm; and during the determination of the bacteria concentration, the parameters of the microplate reader were set to λ=600.
One part of the biosensor was used for the expression of the transcription regulator NCgl0581, and the other part was connected with the promoter PSerE regulated by NCgl0581, and then connected with eyfp, which was used to characterize the binding of the biosensor to L-serine so as to regulate the transcription level of eyfp. The nucleotide sequence of the promoter PSerE is shown in SEQ ID NO.5, and the nucleotide sequence of the reporter gene eyfp is shown in SEQ ID No.6.
On the basis of site-directed mutation, E. coli JM109 single colonies containing wild-type NCgl0581 and mutant E136P were selected and inoculated into a 10 mL LB (100 μg/mL Kan) liquid medium, and cultured overnight at 37° C. and 220 rpm. A 950 μL of fresh LB medium was added to each well in a sterilized 24-well plate, and then L-serine with different concentrations was added, with the final concentration controlled to be 0, 25, 50, 75 or 100 mM respectively. Finally, 50 μL of the overnight culture bacteria liquid was added to each well, and the well plate was cultured in a shaker for 2 h at 37° C. and 220 rpm.
E. coli JM109 in the medium was centrifuged for 5 min to collect the bacteria, washed with a PBS buffer for 2-3 times, resuspended and diluted in a PBS buffer (OD600=0.2-0.8). 200 μL of the diluted bacterial liquid was pipetted and added into a 96-well plate, and the bacterial concentration OD600 and fluorescence intensity were determined with a multifunctional microplate reader, with the calculated fluorescence intensity/OD600 as the fluorescence intensity value per unit of bacterial cell.
With the fluorescence intensity/OD600 as the ordinate and the L-serine concentration as the abscissa, the dose response curve of the biosensor to L-serine was drawn by OriginPro 8.5. […] According to the response curve, the detection range of wild-type NCgl0581 and mutant E136P could be obtained respectively.

B1: NCgl0581^E136P: transcription factor NCgl0581 mutant, 136th glutamic acid of SEQ ID NO.1 mutated into proline (SEQ ID NO.3) (protein)
chain: VLNLNRLHILQEFHRLGTITAVAESMNYSRSAISQQMALLEKEIGVKLFEKSGRNLYFTEQGEVLASETHAIMAAVDHARAAVLDSLSEVSGTLKVTSFQSLLFTLAPKAIARLTEKYPHLQVEISQLEVTAALEPLRARRVDVALGEEYPVEVPLVEASIHREVLFEDPMLLVTPASGPYSGLTLPELRDIPIAIDPPDLPAGEWVHRLCRRAGFEPRVTFETSDPMLQAHLVRSGLAVTFSPTLLTPMLESVHIQPLPGNPTRTLYTAVREGRQGHPAIKAFRRALAHVAKESYLEARLVE
Take B1: the “detection limit of the biosensor (L-serine concentration at which the dose response curve shows an obvious upward trend)” value is 25 mM. Besides, the “change of detection limit of the biosensor versus wild type” value (biosensor in E. coli, L-serine concentration gradients) is given as “reduced by half”. Also, the “response concentration to L-serine” value (biosensor in E. coli, exogenous addition of L-serine) was 25 mM.

B2: wild-type NCgl0581: wild-type LysR-family transcription regulator of Corynebacterium glutamicum (SEQ ID NO.1); L-serine biosensor pDSer is based on it (protein)
chain: B1 chain with P136E
As for B2, the “detection limit of the biosensor (L-serine concentration at which the dose response curve shows an obvious upward trend)” value is recorded as 50 mM.

(Values after patent publication US12448422B2, “Transcription factor NCgl0581 mutant and use thereof in L-serine detection” (JITRI FUTURE FOOD TECHNOLOGY INSTITUTE CO., LTD., priority 2023, dated 2025).)
